In the supplement of paper PMC12667976:

B1: library; numbered along this chain (parent)
chain: MATDAALRRLLRLHRTEIAVAVDSAFPLLHALADHDVVPEDKFQETLHLKEKEGCPQAFHALLSWLLTQDSTAILDFWRVLFKDYNLERYGRLQPILDSFPKDVDLSQPRKGRKPPAVPKALVPPPRLPTKRKASEEARAAAPAALTPRGTASPGSQLKAKPPKKPESSAEQQRLPLGNGIQTMSASVQRAVAMSSGDVPGARGAVEGILIQQVFESGGSKKCIQVGGEFYTPSKFEDSGSGKNKARSSSGPKPLVRAKGAQGAAPGGGEARLGQQGSVPAPLALPSDPQLHQKNEDECAVCRDGGELICCDGCPRAFHLACLSPPLREIPSGTWRCSSCLQATVQEVQPRAEEPRPQEPPVETPLPPGLRSAGEEVRGPPGEPLAGMDTTLVYKHLPAPPSAAPLPGLDSSALHPLLCVGPEGQQNLAPGARCGVCGDGTDVLRCTHCAAAFHWRCHFPAGTSRPGTGLRCRSCSGDVTPAPVEGVLAPSPARLAPGPAKDDTASHEPALHRDDLESLLSEHTFDGILQWAIQSMARPAAPFPS

Variants of: B1
Assay: AIRE transcriptional activation functional score (insulin promoter-GFP; nonsense median 0, synonymous median 1) (normalised score); higher = higher AIRE activity (more reporter activation)
Settings: with insulin promoter-GFP reporter in HEK293
Experimental: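 Deep mutational scan of full-length human AIRE (codon-optimized cDNA, DT-POPCode NNN libraries over three regions) integrated at a Bxb1 landing pad in HEK293 cells carrying an insulin core promoter-GFP reporter at a Flp-In site. Cells were sorted for the top 10% GFP about 14 days after transfection. Variant frequency log-ratios (select vs non-select, TileSeq) were rescaled so that the nonsense median is 0 and the synonymous median is 1, then averaged over biological replicates.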

AIRE transcriptional activation functional score of substitutions, site by site:
R110: V 1.21 | S 1.01 | K 1.25 | Y 1.61 | E 1.09 | W 1.5 | G 1.34 | N 0.62 | A 1.41 | P 0.621 | C 0.426 | Q 0.31 | I 1.21 | D 2.5 | T 0.97 | L 1.44 | F 0.927 | M 0.295
V118: L 0.953 | R 0.372 | F 1.01 | S 0.863 | N 0.783 | C 1.25 | Y 1.42 | Q 0.675 | I 1.01 | A 1.02 | P 1.47 | H 1.74 | M 1.31 | K 0.143 | W 1.13 | T 0.667 | E 1.08 | G 0.911 | D 0.403
K114: G 0.427 | S 0.787 | T 1.19 | F 0.817 | V 0.691 | Y 1.51 | H 0.207 | L 1.03 | W 1.32 | Q 0.342 | R 0.793 | I 1.03 | C 1.06 | D 0.131 | M 0.913 | P 0.1 | N 0.632 | A -0.00452 | E 1.46
G112: H 0.912 | R 0.278 | E 1.23 | L 1.31 | D 1.13 | Y 0.893 | N 0.726 | I 1.08 | K 0.268 | C 0.924 | P 1.12 | W 1.45 | M 0.488 | T 1.31 | F 1.03 | S 0.851 | Q 1.37 | A 1.49 | V 0.878
A117: T 1.16 | C 1.1 | H 1.22 | F 1.04 | S 0.692 | W 1.4 | N 0.792 | Y 1.76 | V 0.34 | Q 1.44 | M 0.838 | G 1.22 | R 0.501 | D 0.179 | I 0.777 | E 1.03 | K 0.457 | L 1.13 | P 0.913
V123: I 1.17 | T 0.905 | C 1.27 | K 1.26 | D 1.11 | E 0.862 | M 1.72 | P 0.742 | G 1.3 | S 0.751 | F 1.33 | N 1.03 | L 1.28 | H 1.19 | Q 1.31 | Y 1.43 | R 0.872 | A 0.886
K111: D -0.0433 | H 0.607 | L 1.65 | Y 1.29 | R 0.805 | A 1.84 | M -0.763 | G 0.901 | S 1.18 | I 1.36 | E 0.792 | W 0.591 | F 0.696 | Q -0.0716 | V 1.37 | T 0.947 | C 1.44 | N 1.36
Q108: W 0.796 | N 0.625 | I -0.272 | F 0.53 | K 0.479 | L 0.0593 | C 0.53 | R 0.951 | T 1.35 | E 1.66 | G 0.482 | A 0.176 | Y 1.24 | H -0.231 | V 0.8 | M 2.4 | S 0.618 | D 2.03 | P 0.669
S107: W 1.49 | N 0.000996 | I 1.02 | D 0.707 | L 1.05 | H 1.33 | P 0.096 | K 0.75 | E 0.777 | V 1 | C 1.12 | Q 0.12 | Y 0.891 | M 1.27 | T 0.785 | A 1.04 | F 0.789 | R 1.25 | G 0.704
L106: R 0.112 | K 0.511 | G -0.428 | T 0.979 | Q -0.722 | P -1.47 | W 0.739 | I -1.62 | M 0.0877 | V 0.581 | Y 1.27 | N 0.233 | S -1.04
R113: H 1.08 | I 1.46 | F 1.12 | Y 0.831 | T 0.935 | M 0.565 | Q 1.18 | E 0.975 | N 1.68 | L 0.951 | P 0.537 | D 0.648 | K 1.18 | G 0.801 | A 0.951 | W 0.668 | V 0.537 | S 1.02 | C 1.3
P116: T 0.481 | G 0.577 | H 1.15 | S 1.12 | C 1.36 | L 1.07 | E 0.895 | Y 1.17 | V 0.906 | F 1.18 | M 1.1 | I 1.36 | W 1.13 | D 0.468 | A 0.756 | N 2.06 | K 0.772 | R 0.38 | Q 1.41
P109: A 0.959 | R 0.676 | W 0.0143 | D 0.988 | C 0.656 | K 0.0515 | T 1.54 | L 0.821 | G 0.279 | N -1.94 | Q 0.797 | M 2.55 | F 1.16 | Y 0.732 | E 0.161 | I 0.666 | S 1.1 | V 0.635 | H 1.28
P115: E 0.792 | S 1.58 | L 1.2 | Q 1.01 | W 0.278 | T 0.525 | F 1.5 | C 0.977 | G 0.828 | M 0.979 | D 0.0469 | A 0.798 | R 0.784 | N 1.02 | V 1.21 | I 0.466 | H 1.03 | Y 0.917 | K -0.166
K120: D 0.677 | F 0.998 | W 1.43 | S 1.21 | N 1.29 | E 0.943 | L 1.13 | G 1.12 | R 1.21 | C 1.2 | I 1.2 | H 0.932 | P 1.21 | M 1.31 | Y 1.34 | T 1.79 | Q 0.232 | V 1.01 | A 0.814
L122: H 0.431 | C 1.17 | S 1.44 | A 0.747 | Q 0.272 | F 1.32 | N 0.335 | E 0.827 | Y 1.45 | W 0.871 | R 0.83 | P 0.586 | V 0.859 | G 1.29 | K 0.401 | D 1.44 | M 1.1 | T 0.686 | I 0.612
P119: S 0.765 | Y 1.63 | L 0.904 | N 1.04 | A 1.03 | H 1.17 | M 0.545 | Q 1.02 | K 1.36 | W 1.58 | G 0.741 | T 1.59 | D 0.86 | V 0.878 | R 0.495 | I 1.52 | C 1.04 | F 1.39 | E 1.37
P124: A 0.614
A121: F 1.22 | I 0.906 | E 1.35 | H 0.141 | Q 0.141 | L 1.09 | N 1.1 | P 0.967 | V 0.67 | T 0.322 | R 0.922 | S 1.28 | G 1.4 | W 1.54 | C 1.3 | M 1.2 | Y 1.59 | K 1.21 | D 0.847
